Key:
401-01R_6162-C57-1 = assay: NGS-count immunoassay, capture antibody titration, single-site binding fit; average Kd; antibody pair
6162-H85-2t_6162-F78-2 = assay: NGS-count immunoassay, capture antibody titration; average Kd; antibody pair
6162-B78-8_MAM02-008 = assay: as above

B1: Analyte (other)
chain: KLTIESTPFNVAEGKEVLLLVHNLPQHLFGYSWYKGERVDGNRQIIGYVIGTQQATPGPAYSGREIIYPNASLLIQNIIQNDTGFYTLHVIKSDLVNEEATGQFRVYPELPKPSISSNNSKPVEDKDAVAFTCEPETQDATYLWWVNNQSLPVSPRLQLSNGNRTLTLFNVTRNDTASYKCETQNPVSARRSDSVILNVLYGPDAPTISPLNTSYRSGENLNLSCHAASNPPAQYSWFVNGTFQQSTQELFIPNITVNNSGSYTCQAHNSDTGLNRTTVTTITVYAEPPKPFITSNNSNPVEDEDAVALTCEPEIQNTTYLWWVNNQSLPVSPRLQLSNDNRTLTLLSVTRNDVGPYECGIQNELSVDHSDPVILNVLYGPDDPTISPSYTYYRPGVNLSLSCHAASNPPAQYSWLIDGNIQQHTQELFISNITEKNSGLYTCQANNSASGHSRTTVKTITVSAELPKPSISSNNSKPVEDKDAVAFTCEPEAQNTTYLWWVNGQSLPVSPRLQLSNGNRTLTLFNVTRNDARAYVCGIQNSVSANRSDPVTLDVLYGPDTPIISPPDSSYLSGANLNLSCHSASNPSPQYSWRINGIPQQHTQVLFIAKITPNNNGTYACFVSNLATGRNNSIVKSITVSASGTSPGLSA
In the case of B1, the Kd (401-01R_6162-C57-1) is reported as 0.906 nM, the Kd (6162-H85-2t_6162-F78-2) is reported as 0.352 nM and the Kd (6162-B78-8_MAM02-008) is reported as 1.94 nM.

Reference: patent US20240409983A1 (published 2024)
